This passage reports binding results from article PMC11475020.

The target in this data set is T1, IscR-His (Caulobacter crescentus NA1000) (UniProt A0A0H3C7T4).
T1 sequence: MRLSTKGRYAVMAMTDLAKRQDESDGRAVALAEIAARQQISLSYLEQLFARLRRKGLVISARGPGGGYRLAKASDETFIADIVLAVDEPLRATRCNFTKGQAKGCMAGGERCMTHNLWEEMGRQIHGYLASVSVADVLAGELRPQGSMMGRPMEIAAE
Nature of the data set: EMSA. To be noted: 10 mM HEPES, 40 mM KCl, 1 mM MgCl2, 1 mM MnCl2, 5% glycerol, 0.1 mg/ml salmon sperm DNA, 500 ng probe, pH not stated, 30 min room temperature. (A gel shift assay detects complexes by their altered migration in electrophoresis.)

Take “AAACCACTCCCGGAATCACGCGCAGATCGGAAGGGACACACAGGTTCCGCCTCCGCGCCGCGTACCACCCTGAACGACTGGAGGGGGGCGACCGGCCGCTTCTTAGCGCCGCCGTCGACCAACGTCCATGTCACGTGCGGGGTCTTGGCGTGTTGAGAGCTGTTCTCATTAAGGATCTGGCGATTTCGCGCGGTGAGCGAACGCTGTTTTC (double strand) [acn regulatory region]”: the binding result is recorded as “binds”.
